This passage reports reduction of RacGAP1 in the IQGAP1 complex on infection with the wild-type strain results from article PMC7910587.

This assay has as its target IQGAP1 (Ras GTPase-activating-like protein IQGAP1) (human (endogenous in INT 407)) (UniProt P46940). Kind of assay: co-IP; INT 407 cells non-infected or infected for 45 min with C. jejuni wild-type strain (F38011 or 81-176) or the ∆ciaD mutant; lysis in IP buffer with 50 mM NaCl; IP with mouse anti-IQGAP1 and Protein A/G agarose; immunoblots for RacGAP1, Rac1, Erk 1/2. In general terms: In western blotting, separated proteins are transferred to a membrane and probed.
Sequence of UniProt P46940 (P46940 whole entry): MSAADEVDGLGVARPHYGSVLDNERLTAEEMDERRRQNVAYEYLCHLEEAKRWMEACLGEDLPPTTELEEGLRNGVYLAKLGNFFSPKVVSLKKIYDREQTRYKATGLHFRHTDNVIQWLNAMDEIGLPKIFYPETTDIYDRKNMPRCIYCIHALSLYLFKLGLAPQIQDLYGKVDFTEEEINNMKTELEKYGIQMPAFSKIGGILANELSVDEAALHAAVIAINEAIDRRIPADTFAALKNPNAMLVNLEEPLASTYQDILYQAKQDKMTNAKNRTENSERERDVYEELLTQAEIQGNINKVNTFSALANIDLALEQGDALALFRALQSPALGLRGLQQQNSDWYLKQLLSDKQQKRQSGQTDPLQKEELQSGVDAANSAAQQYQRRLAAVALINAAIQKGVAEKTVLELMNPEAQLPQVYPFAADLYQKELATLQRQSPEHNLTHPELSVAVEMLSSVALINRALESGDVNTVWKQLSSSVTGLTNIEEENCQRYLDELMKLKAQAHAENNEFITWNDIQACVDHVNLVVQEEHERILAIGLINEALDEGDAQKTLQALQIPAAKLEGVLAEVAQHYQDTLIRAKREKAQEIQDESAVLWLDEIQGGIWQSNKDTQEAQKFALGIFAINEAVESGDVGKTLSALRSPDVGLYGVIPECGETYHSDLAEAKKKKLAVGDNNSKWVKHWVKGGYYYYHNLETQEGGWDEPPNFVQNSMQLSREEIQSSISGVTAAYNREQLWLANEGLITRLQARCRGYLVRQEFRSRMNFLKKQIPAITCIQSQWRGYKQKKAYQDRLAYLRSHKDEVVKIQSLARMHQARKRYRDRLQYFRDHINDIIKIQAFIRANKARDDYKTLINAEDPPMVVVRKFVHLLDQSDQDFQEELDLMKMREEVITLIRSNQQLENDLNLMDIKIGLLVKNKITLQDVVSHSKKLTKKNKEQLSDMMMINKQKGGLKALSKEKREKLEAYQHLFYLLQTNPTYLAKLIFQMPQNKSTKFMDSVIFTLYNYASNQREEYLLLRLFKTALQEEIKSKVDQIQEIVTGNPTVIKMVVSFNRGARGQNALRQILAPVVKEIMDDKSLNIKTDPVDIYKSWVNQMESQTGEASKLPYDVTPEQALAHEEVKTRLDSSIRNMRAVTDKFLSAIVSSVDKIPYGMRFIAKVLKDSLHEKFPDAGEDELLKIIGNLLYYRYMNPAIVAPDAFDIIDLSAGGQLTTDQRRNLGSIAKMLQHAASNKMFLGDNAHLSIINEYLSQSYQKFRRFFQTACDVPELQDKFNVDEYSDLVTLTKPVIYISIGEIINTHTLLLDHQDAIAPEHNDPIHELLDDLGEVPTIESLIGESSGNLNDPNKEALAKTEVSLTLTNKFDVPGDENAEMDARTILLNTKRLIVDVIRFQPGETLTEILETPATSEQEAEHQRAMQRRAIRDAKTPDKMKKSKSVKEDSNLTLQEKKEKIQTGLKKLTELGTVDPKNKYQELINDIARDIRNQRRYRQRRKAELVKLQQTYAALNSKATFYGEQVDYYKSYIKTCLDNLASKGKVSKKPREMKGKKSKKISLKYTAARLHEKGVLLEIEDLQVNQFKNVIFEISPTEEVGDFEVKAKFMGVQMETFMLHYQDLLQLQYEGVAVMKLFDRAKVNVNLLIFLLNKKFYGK

Substance “CiaD effector protein of the C. jejuni F38011 wild-type strain (from UniProt Q0PAA2 1-163) (natural protein)” came in with a reduction of RacGAP1 in the IQGAP1 complex on infection with the wild-type strain of 50%.
